Here are results for one substance from PMC3887095.

The target in assay [1] is RKLM+S41A HIV-1 CA-NC tubular complexes (HIV-1). In words: co-sedimentation; 5 µl of assembled CA-NC complexes mixed with 125 µg of HeLa cell lysate, NaCl adjusted to 150 mM, 1 h at room temperature; pelleted through a 60% sucrose cushion at 100,000 x g for 1 h at 4°C; CPSF6 in the pellet measured by LI-COR and normalized by CA-NC.
In assay [2] the target is RKLM+T107I HIV-1 CA-NC tubular complexes (HIV-1). Described as above.
The target in assay [3] is T54A+A105T HIV-1 CA tubes (HIV-1). In words: co-sedimentation; assembled CA tubes (5 µM) incubated 1 h with HeLa cell extracts (500, 250 or 125 µg) in 100 µl of 50 mM Tris pH 8, 150 mM NaCl, 5 mM MgCl2, 0.5 mM EDTA; pelleted 5 min at 5,000 x g and washed; non-reducing SDS-PAGE and quantitative immunoblotting for CPSF6 and CA; in one experiment with or without 5 µM CsA. A general note: Immunoblotting shows a protein as a band on a membrane.

The target in assay [4] is RKLM+T107I HIV-1 CA tubes (HIV-1). Described as above.

In assay [1], “endogenous CPSF6 (from UniProt Q16630 1-551) (natural protein)” displayed a percent weaker binding than RKLM of 7%. Besides, the reduced binding to CPSF6, percent in assay [2] and in assay [4] was 50% throughout. Also, in assay [3], the quantity of CPSF6 brought down relative to T54A CA tubes (fold of T54A CA tubes) is 0.33.
